# Numbering of substitutions follows the chain as printed.
# B1: AL2p huIgG1 (human mouse chimeric parental antibody) (antibody, V domains shown)
# VH: QVQLQQSGPELVKPGASLKISCKASGYAFSSSWMNWVKQRPGKGLEWIGRIYPGDGDTNYNGEFRVRATLTADTSSTTAYMQLSSLTSEDSAVYFCARLLRNQPGESYAMDYWGQGASVTVSS
# VL: DVVMTQTPLSLPVSLGDQASISCRSSQSLVHSNGYTYLHWYLQKPGQSPKLLIYKVSNRFSGVPDRFSGSGSGTDFTLKISRVEADDLGVYFCSQSTRVPYTFGGGTKLEIK
# notes: Mouse variable region with human IgG1 Fc region; Fab and IgG formats under one id; also called chimeric parental AL2p antibody as huIgG1
# B2: AL2p-47 huIgG1 (antibody, V domains shown)
# VH: QVQLVQSGAEVKKPGSSVKVSCKASGYAFSSDWMNWVRQAPGQGLEWMGRIYPGEGDTNYARKFHGRVTITADESTSTAYMELSSLRSEDTAVYYCARLLRNKPGESYAMDYWGQGTLVTVSS
# VL: DVVMTQTPLSLSVTPGQPASISCRTSQSLVHSNAYTYLHWYLQKPGQSPQLLIYKVSNRVSGVPDRFSGSGSGTDFTLKISRVEAEDVGVYYCSQSTRVPYTFGQGTKLEIKR
# B3: AL2p-8 (antibody, V domains shown)
# VH: B2 VH with S31L, D32S, E55D, H65Q, K103Q, E106S
# VL: GVVMTQTPLSLSVTPGQPASISCRSSQSLIHSNGYTYLHWYLQKPGQSPQLLIYKVSNRRSGVPDRFSGSGSGTDFTLKISRVEAEDVGVYYCSQSTRVPYTFGQGTKLEIK
# notes: Fab and IgG formats under one id
# B4: AL2p-26 (antibody, V domains shown)
# VH: B2 VH with D32H, E55G, R62Q, F64R, H65Q, K103Q
# VL: B3 VL
# notes: as for B3
# B5: AL2p-9 (antibody, V domains shown)
# VH: B2 VH with S31R, D32S, E55D, R62Q, H65Q, K103Q, E106A
# VL: B3 VL with S25T, I30V, R60V
# notes: as for B3
# B6: AL2p-15 (antibody, V domains shown)
# VH: B2 VH with D32H, E55D, R62Q, H65Q, K103Q
# VL: B3 VL with Q27S, I30V, R60K
# notes: as for B3
# B7: AL2p-35 (antibody, V domains shown)
# VH: QVQLVQSGAEVKKPGASVKVSCKASGYAFWSSWMNWVRQAPGQRLEWIGRIYPGDGDTNYAQKFQGRVTITADTSASTAYMELSSLRSEDTAVYYCARLLRNQPGESYAHDYWGQGTLVTVSS
# VL: DVVMTQSPDSLAVSLGERATINCRSSQSLVHSNGYTYLHWYQQKPGQSPKLLIYKVSNRFSGVPDRFSGSGSGTDFTLTISSLQAEDVAVYYCSQSTRVPYTFGGGTKVEIK
# notes: as for B3
# B8: AL2p-36 (antibody, V domains shown)
# VH: B7 VH with W30S, Q62R, E106A, H110M
# VL: B7 VL
# notes: as for B3
# B9: AL2p-16 (antibody, V domains shown)
# VH: B2 VH with D32H, E55D, R62Q, H65R, K103Q, E106A
# VL: B3 VL with S25T, I30V, R60V
# notes: as for B3
# B10: AL2p-29 (antibody, V domains shown)
# VH: B2 VH with D32Q, E55D, R62Q, H65Q, K103Q
# VL: B3 VL with Q27R, I30V, R60F
# notes: as for B3
# B11: AL2p-23 (antibody, V domains shown)
# VH: B2 VH with D32H, E55D, D57Q, R62Q, F64R, H65Q, K103Q
# VL: B3 VL with S25T, I30V, R60V
# notes: as for B3
# B12: AL2p-61 huIgG1 (antibody, V domains shown)
# VH: B2 VH with D32Q, H65Q, K103Q
# VL: B2 VL with D1G, T25S, A34Q, V60R
# Biological target: T1, human TREM2/DAP12 fusion protein (human, UniProt O43914 41-113, limits assumed)
# T1 sequence (O43914 other isoform, or with tags, fused parts or gaps limits assumed): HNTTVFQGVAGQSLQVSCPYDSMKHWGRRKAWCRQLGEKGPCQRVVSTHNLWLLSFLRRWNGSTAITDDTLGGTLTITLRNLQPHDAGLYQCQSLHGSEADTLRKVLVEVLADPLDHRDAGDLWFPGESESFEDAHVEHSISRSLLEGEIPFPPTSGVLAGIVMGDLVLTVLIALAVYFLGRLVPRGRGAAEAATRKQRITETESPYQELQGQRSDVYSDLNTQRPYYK
# Assay: cell-based or functional assay
row,Soluble luciferase activation at 10 µg/ml Fold over control [fold over control],Binder
1,3.55,B1

# Biological target: T2, human TREM2 expressed on cells (human, UniProt Q9NZC2 19-230)
# T2 sequence: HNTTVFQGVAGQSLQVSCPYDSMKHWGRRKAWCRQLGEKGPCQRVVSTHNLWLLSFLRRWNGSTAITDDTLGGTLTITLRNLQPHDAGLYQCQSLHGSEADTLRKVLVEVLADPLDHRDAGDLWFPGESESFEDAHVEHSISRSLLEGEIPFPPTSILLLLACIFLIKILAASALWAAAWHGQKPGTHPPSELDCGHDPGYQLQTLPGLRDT
# Assay: cell-based or functional assay
Binder,"EC50 viability, dendritic cells D558 [nM]","EC50 viability, dendritic cells D559 [nM]","EC50 viability, dendritic cells D560 [nM]","EC50 viability, macrophages D558 [nM]","EC50 viability, macrophages D559 [nM]","EC50 viability, macrophages D560 [nM]"
B1,95.7,41.2,55.1,12.3,146,129
B2,1.02,1.13,0.672,0.013,1.56,1.25

# Biological target: T2, human TREM2 expressed on cells
# Assay: FACS, hTREM2 BW cells
# Experimental: To examine cell binding of anti-TREM2 antibodies, recombinant, human TREM2-expressing BW5147.G.1.4 cells (ATCC® TIB48™) were established by stably expressing either mouse TREM2 or human TREM2 together with Dap12 using viral infection. Cells were harvested by scraping, washed in PBS, counted and plated on 96-well U bottom plates at 1)(10⁵ cells/well. The plates were spun at 1,400 rpm for 3 minutes and primary anti-TREM2 or control antibodies were added in FACS buffer (PBS H2% FBS) and incubated on ice for one hour. Cells were subsequently centrifuged as before and washed thrice with FACS buffer. Cells were then incubated with anti-human PE conjugated secondary antibody (BD Biosciences) in FACS buffer for 30 minutes on ice. Cells were again washed thrice with FACS buffer and analyzed on a BD FACS Canto. Binding was measured as mean fluorescence intensity in the APC channel.
row,cell binding (FOB),Binder
1,79,B1

# Biological target: T2, human TREM2 expressed on cells
# Assay: FACS, human DCs
# Procedure, shortened: (§1)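 Cells were BW5147.G.1.4 stably expressing human TREM2 with Dap12, or human monocyte-derived dendritic cells differentiated 6 days with GM-CSF and IL-4. Antibodies bound 1 h on ice in PBS+2% FBS, then PE anti-human secondary 30 min on ice; flow cytometry read-out as mean fluorescence intensity.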
row,MFI [MFI],Binder
1,310,B3
2,296,B4
3,322,B5
4,262,B6
5,130,B7
6,240,B8
7,327,B9

# Biological target: T1, human TREM2/DAP12 fusion protein
# Assay: cell-based or functional assay
# Remark: another data set of the same source
"Luciferase activation soluble 10 nM IgG, FOC [FOC]","Luciferase activation plate bound 33 nM IgG, FOC [FOC]",Binder
2.78,,B3
2.59,25.9,B4
2.17,26.6,B10
2.62,15.2,B5
1.8,7.54,B6
2.05,5.15,B7
2.64,22.7,B8
2.53,29.8,B11
2.6,16.9,B9

# Biological target: T2, human TREM2 expressed on cells
# Assay: cell-based or functional assay
# Remark: another data set of the same source
row,Binder,"Survival huDCs plate bound IgG, AUC [AUC]"
1,B3,1.09e+06
2,B4,1.11e+06
3,B10,1.11e+06
4,B5,976000
5,B6,488000
6,B7,453000
7,B8,1.14e+06
8,B11,1.11e+06
9,B9,880000

# Biological target: T3, cynomolgus monkey TREM2 Fc fusion (entire TREM2 ECD; only one Fc arm fused to TREM2) (cynomolgus monkey, UniProt Q9NZC2 19-174 (human entry))
# T3 construct: also called cyno TREM2-Fc
# T3 chain: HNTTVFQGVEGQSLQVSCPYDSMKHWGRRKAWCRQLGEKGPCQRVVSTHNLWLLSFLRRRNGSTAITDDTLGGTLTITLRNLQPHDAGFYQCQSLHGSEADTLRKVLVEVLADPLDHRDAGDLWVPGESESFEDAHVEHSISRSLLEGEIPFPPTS
# Assay: BLI, Fab, monovalent
row,Kd [nM],Binder
1,3.1,B3
2,2.69,B4
3,6.47,B10
4,5.63,B5
5,8.76,B6
6,24.6,B7
7,7.38,B8
8,4.16,B11
9,1.36,B9

# Biological target: T4, human TREM2 Fc fusion (entire TREM2 ECD; only one Fc arm fused to TREM2) (human, UniProt Q9NZC2 19-174)
# T4 construct: also called huTREM2-Fc; recombinant hTREM2
# T4 sequence: T3 chain with E10A, R60W, F89L, V125F
# Assay: BLI, Fab, monovalent
row,Kd [nM],Binder
1,4.01,B3
2,3.15,B4
3,6.38,B10
4,6.44,B5
5,8.85,B6
6,28.4,B7
7,12.1,B8
8,4.35,B11
9,1.83,B9

# Biological target: T1, human TREM2/DAP12 fusion protein
# Assay: cell-based or functional assay
# Remark: another data set of the same source
"Plate bound IgG, fold over unstimulated control (25 nM IgG) [fold]","Soluble IgG, EC50 [nM]","Soluble IgG, fold over control IgG (17 nM IgG) [fold]",Binder
1.29,14.6,4.51,B1
3.94,6.5,8.77,B2
8.97,5.24,10.8,B12

# Biological target: T4, human TREM2 Fc fusion (entire TREM2 …)
# Assay: BLI, IgG, avid
# Experimental: (§2) Briefly, IgGs were loaded on-line onto AHQ sensors, Sensors were equilibrated off-line in assay buffer for 30 minutes and then monitored on-line for 60 seconds for baseline establishment. For avid binding measurement, sensors with loaded IgGs were exposed to 100 nM antigen (human or cynomolgus monkey TREM2 Fe fusion using the entire TREM2 ECD; only one Fc arm was fused to TREM2) for 3 minutes, afterwards they were transferred to assay buffer for 3 minutes for off-rate measurement. Monovalent binding measurements were obtained by loading human TREM2 Fc fusion antigens to AHQ sensor and followed by exposure to 100 nM TREM2 antibody Fab. Kinetics data were fit using a 1:1 binding model in the data analysis software provided by ForteBio. Assay was run at room temperature (25° C.).
row,Kd [nM],Binder
1,0.3,B3
2,0.201,B4
3,0.403,B10
4,0.349,B5
5,0.538,B6
6,1.85,B7
7,0.495,B8
8,0.334,B11
9,0.222,B9

# Biological target: T2, human TREM2 expressed on cells
# Assay: FACS, hTREM2 BW cells
# Remark: another data set of the same source
Bmax (MFI),Kd [nM],Binder
199000,1.32,B1
226000,1.2,B2
211000,0.42,B12

# Biological target: T2, human TREM2 expressed on cells
# Assay: FACS, hTREM2 BW cells
# Remark: another data set of the same source
# Procedure, shortened: as §1
row,Kd [nM],Binder
1,1.2,B3
2,1.1,B4
3,1.3,B10
4,1.1,B5
5,2.2,B6
6,3.6,B7
7,1.7,B8
8,1.2,B11
9,1.2,B9

# Biological target: T4, human TREM2 Fc fusion (entire TREM2 …)
# Assay: BLI, Fab, monovalent
# Remark: another data set of the same source
# Experimental: as §2, with “Briefly, IgG's” for “Briefly, IgGs”, “AHQ sensors.” for “AHQ sensors,”, “(human” for “(human or cynomolgus monkey”, “TREM2 Fc” for “TREM2 Fe”, “TREM2 Fe” for “TREM2 Fc”
row,Kd [nM],Binder
1,102,B1

# — US20200317776A1 (published 2020)
